Test results published in patent US20040253685.
Positions count from the first letter of the chain named.

Experiments:
[1] = target: T1, wild type bovine endothelial nitric oxide synthase (eNOS) (UniProt P29473)
T1 sequence: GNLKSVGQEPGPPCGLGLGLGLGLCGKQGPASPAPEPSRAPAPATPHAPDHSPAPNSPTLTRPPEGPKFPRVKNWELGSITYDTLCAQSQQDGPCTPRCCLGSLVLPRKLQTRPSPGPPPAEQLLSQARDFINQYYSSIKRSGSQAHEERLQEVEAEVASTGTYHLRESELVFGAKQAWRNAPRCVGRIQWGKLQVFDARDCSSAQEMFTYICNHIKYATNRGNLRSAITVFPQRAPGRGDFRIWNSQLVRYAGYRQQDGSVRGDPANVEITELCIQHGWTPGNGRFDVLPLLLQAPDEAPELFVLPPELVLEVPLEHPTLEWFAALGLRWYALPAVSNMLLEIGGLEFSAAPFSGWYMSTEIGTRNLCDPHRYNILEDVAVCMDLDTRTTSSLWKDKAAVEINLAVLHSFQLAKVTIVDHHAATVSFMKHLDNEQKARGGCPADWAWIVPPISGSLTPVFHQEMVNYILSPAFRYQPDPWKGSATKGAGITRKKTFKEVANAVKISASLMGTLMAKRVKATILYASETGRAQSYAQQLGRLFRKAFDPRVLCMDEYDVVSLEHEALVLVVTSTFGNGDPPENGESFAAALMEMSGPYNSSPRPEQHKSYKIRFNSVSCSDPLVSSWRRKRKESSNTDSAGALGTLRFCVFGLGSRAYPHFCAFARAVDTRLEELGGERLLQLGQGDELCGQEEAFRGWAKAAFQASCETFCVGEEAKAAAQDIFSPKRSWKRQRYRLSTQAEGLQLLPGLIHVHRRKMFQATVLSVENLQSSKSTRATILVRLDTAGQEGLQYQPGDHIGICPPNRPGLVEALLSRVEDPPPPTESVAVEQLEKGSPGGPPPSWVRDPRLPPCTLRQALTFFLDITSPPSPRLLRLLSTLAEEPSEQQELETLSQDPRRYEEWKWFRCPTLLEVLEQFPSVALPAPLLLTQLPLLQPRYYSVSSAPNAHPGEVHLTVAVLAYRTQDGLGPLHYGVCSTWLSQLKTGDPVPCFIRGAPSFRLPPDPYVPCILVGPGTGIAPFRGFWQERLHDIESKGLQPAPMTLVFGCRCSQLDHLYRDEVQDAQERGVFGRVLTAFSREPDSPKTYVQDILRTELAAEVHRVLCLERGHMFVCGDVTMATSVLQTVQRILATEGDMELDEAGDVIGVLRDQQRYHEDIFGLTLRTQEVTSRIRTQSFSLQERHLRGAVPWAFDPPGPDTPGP

[2] = test system: T2, wild-type eNOS peptide, amino acids 1174-1194
T2 sequence: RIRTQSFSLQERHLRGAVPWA

[3] = test system: mutant eNOS peptide, amino acids 1174-1194 with S1179 changed to an alanine
eNOS S1179A (bovine) = target: T3, eNOS S1179A (bovine) (UniProt P29473)
T3 sequence: T1 sequence with S1178A

Substance | in vitro kinase reaction, incorporation of 32P into the substrate [1] | in vitro kinase reaction, incorporation of 32P into the substrate (histone 2B) | further results
HA-tagged kinase inactive Akt (K179M) | the inactive Akt did not significantly increase histone or eNOS phosphorylation | the inactive Akt did not significantly increase histone or eNOS phosphorylation | –
constitutively active form of Akt (myr-Akt) | – | – | basal production of NO from adenovirus infected BLMVEC [1]: myr-Akt stimulates the basal production of NO from BLMVEC
HA-tagged wild-type Akt (protein kinase B) | 115.4±3.8 pmol of ATP/nmol substrate | 69.3±2.9 ... pmol of ATP/nmol substrate | –
recombinant Akt purified from baculovirus infected SF9 cells | – | – | in vitro kinase reaction, phosphate incorporated into the peptide (Cerenkov counting) [2]: wild-type peptide incorporated 24.6±3.7 nmol phosphate/mg; in vitro kinase reaction, phosphate incorporated into the peptide (Cerenkov counting) [3]: the alanine mutant peptide which incorporated 0.22±0.02 nmol phosphate/mg; in vitro kinase reaction with recombinant Akt, incorporation of 32P into eNOS (eNOS S1179A (bovine)): mutation of S1179 to A markedly reduces Akt-dependent phosphorylation of eNOS compared to the wild-type protein
